Some targets named below: ADP112; ADP110; ADP323.
Holding throughout (assay): AVEXIS screen signal:noise (double-corrected)
A further experiment deals with T1, ADP372.
T1 chain: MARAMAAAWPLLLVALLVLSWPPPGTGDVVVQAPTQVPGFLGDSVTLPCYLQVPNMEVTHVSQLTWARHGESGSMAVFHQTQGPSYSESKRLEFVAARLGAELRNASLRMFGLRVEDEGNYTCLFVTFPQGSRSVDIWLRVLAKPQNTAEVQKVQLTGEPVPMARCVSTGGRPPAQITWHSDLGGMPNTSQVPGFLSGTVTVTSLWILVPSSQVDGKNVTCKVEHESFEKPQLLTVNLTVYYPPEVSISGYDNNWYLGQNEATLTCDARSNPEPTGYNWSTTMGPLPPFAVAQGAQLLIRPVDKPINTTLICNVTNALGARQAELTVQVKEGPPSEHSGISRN

The target of the next experiment is T2, ADP103.
T2 chain: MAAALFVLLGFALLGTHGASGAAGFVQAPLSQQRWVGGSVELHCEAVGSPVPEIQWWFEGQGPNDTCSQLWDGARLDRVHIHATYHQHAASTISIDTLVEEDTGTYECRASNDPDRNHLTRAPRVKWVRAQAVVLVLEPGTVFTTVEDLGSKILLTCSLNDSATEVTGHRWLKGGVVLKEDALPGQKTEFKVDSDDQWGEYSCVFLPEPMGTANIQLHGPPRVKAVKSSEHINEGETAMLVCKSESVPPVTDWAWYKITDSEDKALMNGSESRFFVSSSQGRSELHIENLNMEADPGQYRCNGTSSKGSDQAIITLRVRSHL

The next experiment has as its target T3, ADP150.
T3 chain: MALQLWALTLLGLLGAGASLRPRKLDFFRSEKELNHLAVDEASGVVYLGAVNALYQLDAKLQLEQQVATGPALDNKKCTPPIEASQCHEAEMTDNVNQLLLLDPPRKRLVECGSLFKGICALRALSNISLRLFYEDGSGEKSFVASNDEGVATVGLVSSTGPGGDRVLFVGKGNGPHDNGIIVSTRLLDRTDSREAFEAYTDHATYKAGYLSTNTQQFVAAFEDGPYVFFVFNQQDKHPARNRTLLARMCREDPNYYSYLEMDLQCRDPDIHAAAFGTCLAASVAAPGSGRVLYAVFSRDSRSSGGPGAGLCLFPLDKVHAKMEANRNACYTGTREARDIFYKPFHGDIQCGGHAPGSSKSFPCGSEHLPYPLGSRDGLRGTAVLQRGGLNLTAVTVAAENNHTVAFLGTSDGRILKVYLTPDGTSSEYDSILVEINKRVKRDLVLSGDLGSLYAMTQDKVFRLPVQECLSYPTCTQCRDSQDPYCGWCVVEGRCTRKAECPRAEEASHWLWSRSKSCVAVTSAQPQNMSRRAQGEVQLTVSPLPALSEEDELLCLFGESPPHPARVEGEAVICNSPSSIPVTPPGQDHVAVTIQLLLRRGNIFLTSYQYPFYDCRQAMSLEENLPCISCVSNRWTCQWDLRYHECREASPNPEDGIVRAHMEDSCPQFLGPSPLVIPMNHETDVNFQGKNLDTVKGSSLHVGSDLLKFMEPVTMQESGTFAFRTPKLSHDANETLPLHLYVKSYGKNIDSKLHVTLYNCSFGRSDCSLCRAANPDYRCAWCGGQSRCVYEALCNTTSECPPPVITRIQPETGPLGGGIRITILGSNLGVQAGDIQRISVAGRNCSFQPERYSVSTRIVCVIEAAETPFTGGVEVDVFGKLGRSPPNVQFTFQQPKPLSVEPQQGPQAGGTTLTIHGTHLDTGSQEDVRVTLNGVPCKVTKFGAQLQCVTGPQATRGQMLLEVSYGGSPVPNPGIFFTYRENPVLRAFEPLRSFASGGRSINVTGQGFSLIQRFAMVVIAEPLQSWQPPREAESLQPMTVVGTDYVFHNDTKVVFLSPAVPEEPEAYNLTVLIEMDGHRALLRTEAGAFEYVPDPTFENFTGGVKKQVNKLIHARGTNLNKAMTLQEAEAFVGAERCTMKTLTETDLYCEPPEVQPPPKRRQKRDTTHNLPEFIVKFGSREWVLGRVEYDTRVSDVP

The target of a further experiment is T4, ADP133.
T4 chain: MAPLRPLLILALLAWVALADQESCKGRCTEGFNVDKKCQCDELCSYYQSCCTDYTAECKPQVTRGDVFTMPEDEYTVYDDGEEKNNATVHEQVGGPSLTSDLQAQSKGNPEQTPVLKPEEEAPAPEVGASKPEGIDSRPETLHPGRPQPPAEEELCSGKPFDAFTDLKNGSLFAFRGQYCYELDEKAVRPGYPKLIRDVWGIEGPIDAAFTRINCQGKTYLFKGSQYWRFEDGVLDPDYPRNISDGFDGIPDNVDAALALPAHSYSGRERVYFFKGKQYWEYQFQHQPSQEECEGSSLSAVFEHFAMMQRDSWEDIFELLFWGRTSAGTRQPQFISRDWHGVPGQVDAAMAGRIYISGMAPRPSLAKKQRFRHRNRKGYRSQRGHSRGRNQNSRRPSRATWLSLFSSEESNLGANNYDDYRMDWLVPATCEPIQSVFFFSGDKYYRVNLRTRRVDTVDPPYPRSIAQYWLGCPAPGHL

The target of a further experiment is T5, ADP315.
T5 chain: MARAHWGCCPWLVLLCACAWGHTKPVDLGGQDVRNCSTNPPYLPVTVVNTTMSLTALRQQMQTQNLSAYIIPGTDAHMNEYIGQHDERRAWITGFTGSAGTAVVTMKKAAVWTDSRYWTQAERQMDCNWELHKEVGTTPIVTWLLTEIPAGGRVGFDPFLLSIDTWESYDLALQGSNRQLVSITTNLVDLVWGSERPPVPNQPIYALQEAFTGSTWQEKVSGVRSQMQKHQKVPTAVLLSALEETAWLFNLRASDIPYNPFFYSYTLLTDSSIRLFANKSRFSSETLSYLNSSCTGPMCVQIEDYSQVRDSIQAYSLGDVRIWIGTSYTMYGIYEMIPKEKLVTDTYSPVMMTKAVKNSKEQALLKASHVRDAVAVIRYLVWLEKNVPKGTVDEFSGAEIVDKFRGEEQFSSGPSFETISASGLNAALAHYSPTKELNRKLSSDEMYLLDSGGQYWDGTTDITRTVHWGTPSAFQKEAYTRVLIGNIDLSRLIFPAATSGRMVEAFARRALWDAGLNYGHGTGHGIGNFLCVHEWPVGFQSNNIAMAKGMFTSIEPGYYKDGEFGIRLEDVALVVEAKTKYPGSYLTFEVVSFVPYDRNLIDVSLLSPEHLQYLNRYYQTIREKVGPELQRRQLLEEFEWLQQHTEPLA

Results on three molecules are retold here after article PMC11098746 (2024).

B1: ADP178 (protein)
chain: SDTFRVFEDFDVRRKNKIWCCNLNHEKSYFHNKAINTAYKNRVLKESILLNLDLDMKKYKDNIITRKKTPENIYKEIYENNYEMKYDEDIPNNMAEEKRDEKEVIEHLEIDEKNGKQYKSDINKPVSLSHLKQYKNIYVNNNNKINKKKSIDKHLPSYNLERKNNKYLNFLLVDNRNEAYTFMVPMKFYINHEMYNIADEEYNKLMEDNSVDVYLNNILVEYKYENFEIKEGEVDGEVEGEGEVEGEVEGEVKGKVVEGIENNMNEEEKYNKDNKDKENQINSNGQDENTEFQENDNNDAVIMKYT
modifications: bait human Fc-tagged dimer; N-glycosylation sequons mutated in Plasmodium baits
In the case of B1, the binding score is 5.47 in the experiment with ADP372, 10.2 with ADP103 and 8.31 in the experiment with ADP150.

B2: ADP189 (protein)
chain: NNIAHKEDDCGASELAIKKLQELKKFELDILKDFIKKDTDHTDMYKRYHCISSDFLKNTKQEDKKEDNYAKKEDKKDIENSANYIINNKNEKISFINKIISFVGMWNYNKYGNNIQESKNKINIYNNNNNKAENELLYNKEDYTNHIPTNENPNSYMQLSAFNLAKKSMFLGGKDNAAQNFEVGNYGSFYMIFGARNTDYPWACSCDTLQLEEYKEKKRSYVLCSNQLDMSIQNSDLFCNPKN
modifications: bait human Fc-tagged dimer; N-glycosylation sequons mutated in Plasmodium baits
As for B2, the figures for the binding score with ADP112 and in the experiment with ADP110 were 7.26 and 34.1, respectively.

B3: ADP173 (protein)
chain: EVESSDSTSFLNLISGQSSSNSDDTVSSSDSRGVVASVSGTVDSDVSRTDSTGNVNSKNSELSETRQNSVEQNNNANSADNSIKIKSAFLKENVGVKITGPCDEGFGLVMVPHIIINVDTRNTDIQLGKKSSEINYGIKLRKKGKDEYEEKVGIDLLKNVCETGKNFKFVAYIKGDELIIKWKVIEEGNIPIDIKKFKIKRMSPPITSIQVFSSMSDEKSFVLENKNYVVTNNMPEKCEALATNCFLSGNIDIEKCYQCSLLVENDAKSDVCYNFISRENKEKLNEERFKVKGSTEYEESVESELKGAIDLLISSFYKSDGENGENVLISFEDLNSALEDDIINFCSLLKLVDLSGTFMNHQIGTTADAFNNIVKLLKEHKEEDEFVLRTKLRNPALCMKNVDDWVKSRCGLLTSDDSYVVIKKNSDTNGKNENNEANDEEYDGVIDLSTNENGNVKSIQFNDDIYCNDDYCNRWKNENNCISKIGVEDQGNCASSWAFASKLHFETLRCMKGYDHLGISALYLTNCAKGKISKRCTEGGNPAEFLEIVSNSGFLPTEFDYPYFYALVENSCPSGLNKWINLWEDVKLFDYKYEPNSIGSKGYSVYKSEMFKDNMDEYVKMIKSEIKNKGSVIAYINAQSVLTYDFNGKNILNMCGSKTTDHSINVIGYGHYKNKEGEEKSYWLVRNSWGYYWGDEGNFKVDMYGPSNCNYHFINTVLVFNIDIPMMNNNENNKKGLYNYFPKYTHEFYHNFYDQNFGSDNKISLINSNGANKNDVNNAYTVHGQSGETEVQPSQLRSTANQDSNRGAVTSDPLRTQPETTSTSVKKMDVFQVLKHVKNSKIKVGLIKYDNDDEIGAHHSCTRAYSFDPEKYDECVEFCRKNWEQCKDKPSPGFCLTKLDESKGCFFCYV
modifications: bait human Fc-tagged dimer; N-glycosylation sequons mutated in Plasmodium baits
For B3, the binding score with ADP133 worked out at 6.59; with ADP103, 7.09; with ADP315, 5.31; with ADP323 it was 7.35.
